From US20240059757A1
Where two headings read alike, the source gives them in different places.

Columns and labels:
[1] = target: SARS-CoV-2 Spike protein (SARS-CoV-2 Wuhan-Hu-1) (UniProt P0DTC2); test: cell-based or functional assay
[2] = target: SX2011 spike RBD (SX2011); test: ELISA
[3] = target: SC2018 spike RBD (SC2018); test: ELISA
[4] = target: BGR2008 spike protein RBD (BGR2008); test: ELISA
[5] = target: PANG/GX spike protein RBD (PANG/GX); test: ELISA
[6] = target: RaTG13 spike protein RBD (RaTG13); test: ELISA
[7] = target: Anlong112 spike RBD (Anlong112); test: ELISA
[8] = target: YN2013 spike RBD (YN2013); test: ELISA
[9] = target: PANG/GD spike protein RBD (PANG/GD); test: ELISA
[10] = target: BtKY72 spike protein RBD (BtKY72); test: ELISA
[11] = target: SC2018 spike RBD (SC2018); test: BLI; *no optimal fitting
[12] = target: PANG/GD spike protein (PANG/GD); test: cell-based or functional assay
[13] = target: PANG/GX spike protein (PANG/GX); test: cell-based or functional assay
[14] = target: BGR2008 spike protein RBD (BGR2008); test: BLI
[15] = target: WIV1 spike protein RBD (WIV1); test: BLI
[16] = target: BGR2008 spike protein RBD (BGR2008); test: BLI; remark: listed apart in the source
[17] = target: WIV1 spike protein RBD (WIV1); test: BLI; remark: listed apart in the source
[18] = target: SC2018 spike RBD (SC2018)
[19] = target: WIV1 spike protein RBD (WIV1)
[20] = target: RaTG13 spike protein RBD (RaTG13)
[21] = target: PANG/GD spike protein RBD (PANG/GD)
[22] = target: BGR2008 spike protein RBD (BGR2008)
[23] = target: ZC45 spike protein RBD (ZC45)
[24] = target: BtKY72 spike protein RBD (BtKY72)
[25] = target: PANG/GX spike protein RBD (PANG/GX)

Chain of S2X259 (antibody) (VH): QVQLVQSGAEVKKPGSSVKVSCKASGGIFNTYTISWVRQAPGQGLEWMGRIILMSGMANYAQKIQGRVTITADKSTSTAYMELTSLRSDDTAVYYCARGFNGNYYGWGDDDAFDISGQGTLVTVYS
Chain of S2X259 (antibody) (VL): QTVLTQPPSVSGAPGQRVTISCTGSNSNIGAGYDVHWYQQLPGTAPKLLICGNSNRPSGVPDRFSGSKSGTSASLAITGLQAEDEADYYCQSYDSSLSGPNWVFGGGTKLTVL
Chain of S2X259 Fab (VH): as the sequence (VH) above
Chain of S2X259 Fab (VL): as the sequence (VL) above

Work on S2E12-LS (antibody) yielded a neutralization EC50 (interpolated) [1] of 1.4 ng/mL, a neutralization EC90 (interpolated) [1] of 11.9 ng/mL and a neutralization IC50 [1] of 1.4 ng/mL.

Work on S2M11-LS (antibody) yielded a neutralization EC50 (interpolated) [1] of 1.1 ng/mL, a neutralization EC90 (interpolated) [1] of 14.4 ng/mL and a neutralization IC50 [1] of 0.914 ng/mL.

With S2X259 (antibody) the EC50 [2] was 0.001 to 0.05 µg/mL, the EC50 [3] was 0.001 to 0.05 µg/mL and the EC50 [4] was 0.0308 µg/mL. For the same substance, the EC50 [5] was 0.0281 µg/mL, the EC50 [6] was 0.0401 µg/mL and the EC50 [7] was 0.1 to 1 µg/mL. For the same substance, the EC50 [8] was 0.001 to 0.05 µg/mL, the EC50 [9] was 0.0362 µg/mL and the EC50 [10] was 0.0376 µg/mL. For the same substance, the Kd [11] was 6.93 nM, the neutralization IC50 [12] was 0.179 µg/mL and the neutralization IC50 [13] was 1.32 µg/mL. It also gave a Kd [14] of 1.04 nM, a Kd [15] of 0.57 nM and a Kd [16] of 1.24 nM. The Kd [17] was 0.61 nM.

S2X259 Fab gave a Kd [18] of 64 nM, a Kd [19] of 1.4 nM and a Kd [20] of 1.1 nM. It also gave a Kd [21] of 0.2 nM, a Kd [22] of 3.6 nM and a Kd [23] of 4 µM. It also gave a Kd [24] of 0.4 nM and a Kd [25] of 10 nM.
